Measured values reported in the supplement of paper PMC6757056.
± gives the standard deviation of the averaged measurements.

B1: library; a variant is named by its letters at N, in order (parent)
chain: GCUGUCACCGGUGUAUUACCCUAGUGGUCGACCGGUCUGAUGAGUCUNNNNNNAGACGAAACAGC

What was measured:
hypoxanthine [1] = variants of: B1; assay: normalized RNA/DNA level with ligand (relative to sTRSVctl = 100) (log10 (% of sTRSVctl)); ligand: hypoxanthine (xanthine aptamer); higher = less ribozyme self-cleavage, higher mRNA level; settings: ligand concentration (+) RNA-Seq: 5 mM, HEK293T, reporter: mCherry (pCS4076), ligand present: yes
How it was run: (§1)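 Total RNA, extracted with EDTA 72 h after HEK293T cells were transfected with 4 µg per 6-well well of reporter-linked ribozyme switch library plasmids, was reverse-transcribed, amplified, barcoded and sequenced. Ligand, if used, was added 1 h before transfection. RNA level was derived from RNA reads divided by DNA reads and normalized to a spiked-in non-cleaving sequence or to the top sequences. This was multiplied by 100 and log10-transformed, with the top set of 25 sequences and a ≥100 DNA read minimum.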

hypoxanthine [2] = variants of: B1; assay: normalized RNA/DNA level without ligand (relative to sTRSVctl = 100) (log10 (% of sTRSVctl)); ligand: hypoxanthine (xanthine aptamer); higher = less ribozyme self-cleavage, higher mRNA level; settings: HEK293T, reporter: mCherry (pCS4076), ligand present: no
How it was run: as §1

Variant | normalized RNA/DNA level with ligand (log10) (hypoxanthine [1]) | normalized RNA/DNA level without ligand (log10) (hypoxanthine [2])
GCUUAC | 1.918 ± 0.0079 | 1.7 ± 0.11
UCUUAC | 1.94 ± 0.058 | 1.83 ± 0.044
ACUUAC | 1.93 ± 0.046 | 1.84 ± 0.052
CCUUAG | 1.98 ± 0.025 | 1.72 ± 0.037
UCUUAG | 1.93 ± 0.042 | 1.66 ± 0.017
CCUUAU | 1.95 ± 0.014 | 1.93 ± 0.069
GCUUAU | 1.98 ± 0.053 | 1.81 ± 0.019
UCUUAU | 1.9468 ± 0.0014 | 1.84 ± 0.092
ACUUAU | 1.9 ± 0.029 | 1.729 ± 0.014
CCUUCA | 1.97 ± 0.074 | 1.91 ± 0.04
GCUUCA | 1.966 ± 0.0076 | 1.898 ± 0.011
UCUUCA | 1.97 ± 0.11 | 1.8691 ± 0.00053
ACUUCA | 1.95 ± 0.025 | 1.922 ± 0.013
CCUUCC | 1.99 ± 0.033 | 1.963 ± 0.016
GCUUCC | 1.963 ± 0.0026 | 1.833 ± 0.012
UCUUCC | 2.022 ± 0.017 | 1.92 ± 0.024
ACUUCC | 1.928 ± 0.015 | 1.923 ± 0.0089
CCUUCG | 1.88 ± 0.035 | 1.876 ± 0.0072
UCUUCG | 1.93 ± 0.086 | 1.7 ± 0.11
CCUUCU | 1.98 ± 0.08 | 1.95 ± 0.048
GCUUCU | 1.996 ± 0.0049 | 1.94 ± 0.058
UCUUCU | 1.979 ± 0.0024 | 1.94 ± 0.099
ACUUCU | 1.91 ± 0.12 | 1.889 ± 0.0063
CCUUGA | 1.97 ± 0.09 | 1.86 ± 0.026

Variant | normalized RNA/DNA level with ligand (log10) (hypoxanthine [1]) | normalized RNA/DNA level without ligand (log10) (hypoxanthine [2])
ACUUGA | 1.935 ± 0.017 | 1.72 ± 0.027
GCUUGC | 1.96 ± 0.033 | 1.87 ± 0.048
UCUUGC | 1.98 ± 0.1 | 1.9 ± 0.022
ACUUGC | 1.9727 ± 0.00052 | 1.822 ± 0.0021
UCUUGG | 1.92 ± 0.035 | 1.751 ± 0.008
ACUUGG | 1.88 ± 0.029 | 1.38 ± 0.068
CCUUGU | 1.93 ± 0.15 | 1.88 ± 0.041
GCUUGU | 1.93 ± 0.0067 | 1.72 ± 0.023
UCUUGU | 1.91 ± 0.1 | 1.667 ± 0.0039
ACUUGU | 1.91 ± 0.086 | 1.77 ± 0.11
CCUUUA | 1.948 ± 0.019 | 1.84 ± 0.035
ACUUUA | 1.903 ± 0.015 | 1.82 ± 0.067
CCUUUC | 2 ± 0.1 | 1.98 ± 0.046
UCUUUC | 2.01 ± 0.052 | 1.99 ± 0.068
ACUUUC | 1.98 ± 0.046 | 1.95 ± 0.044
CCUUUG | 1.96 ± 0.09 | 1.81 ± 0.076
UCUUUG | 1.95 ± 0.033 | 1.73 ± 0.043
ACUUUG | 1.91 ± 0.043 | 1.57 ± 0.021
CCUUUU | 1.966 ± 0.019 | 1.892 ± 0.018
GCUUUU | 1.96 ± 0.011 | 1.831 ± 0.01
UCUUUU | 1.95 ± 0.086 | 1.947 ± 0.0056
ACUUUU | 1.92 ± 0.044 | 1.868 ± 0.012
UGAAAA | 1.921 ± 0.0047 | 1.836 ± 0.015
GGAAAC | 1.939 ± 0.018 | 1.84 ± 0.014

Variant | normalized RNA/DNA level with ligand (log10) (hypoxanthine [1]) | normalized RNA/DNA level without ligand (log10) (hypoxanthine [2])
CGAAAG | 1.94 ± 0.04 | 1.839 ± 0.0055
UGAAAG | 1.862 ± 0.017 | 1.72 ± 0.039
AGAAAG | 1.82 ± 0.039 | 1.41 ± 0.029
GGAAAU | 1.9 ± 0.071 | 1.77 ± 0.053
UGAAAU | 1.907 ± 0.005 | 1.76 ± 0.005
CGAACA | 1.94 ± 0.011 | 1.76 ± 0.015
GGAACA | 1.942 ± 0.0069 | 1.764 ± 0.0065
AGAACA | 1.91 ± 0.044 | 1.799 ± 0.0065
GGAACC | 1.957 ± 0.0033 | 1.86 ± 0.021
UGAACC | 1.9742 ± 0.00065 | 1.92 ± 0.057
CGAACG | 1.96 ± 0.038 | 1.8 ± 0.035
UGAACG | 1.91 ± 0.034 | 1.823 ± 0.0083
CGAACU | 1.93 ± 0.056 | 1.79 ± 0.018
GGAACU | 1.93 ± 0.031 | 1.9403 ± 0.00023
AGAACU | 1.96 ± 0.035 | 1.83 ± 0.022
CGAAGC | 1.948 ± 0.0063 | 1.811 ± 0.012
UGAAGC | 1.925 ± 0.0097 | 1.807 ± 0.01
AGAAGC | 1.918 ± 0.0099 | 1.7002 ± 0.0015
UGAAGG | 1.83 ± 0.055 | 1.48 ± 0.062
CGAAGU | 1.93 ± 0.022 | 1.86 ± 0.046
GGAAGU | 1.91 ± 0.047 | 1.7 ± 0.02
AGAAGU | 1.85 ± 0.034 | 1.51 ± 0.029
UGAAUA | 1.93 ± 0.026 | 1.86 ± 0.019
AGAAUA | 1.92 ± 0.012 | 1.77 ± 0.03

Variant | normalized RNA/DNA level with ligand (log10) (hypoxanthine [1]) | normalized RNA/DNA level without ligand (log10) (hypoxanthine [2])
CGAAUC | 1.98 ± 0.028 | 1.96 ± 0.042
GGAAUC | 1.9 ± 0.035 | 1.81 ± 0.057
UGAAUC | 1.943 ± 0.013 | 1.96 ± 0.022
AGAAUC | 1.94 ± 0.086 | 1.91 ± 0.048
CGAAUG | 1.913 ± 0.003 | 1.883 ± 0.008
UGAAUG | 1.9 ± 0.0011 | 1.75 ± 0.061
CGAAUU | 1.95 ± 0.046 | 1.807 ± 0.00086
UGAAUU | 1.93 ± 0.021 | 1.897 ± 0.014
AGAAUU | 1.926 ± 0.017 | 1.86 ± 0.025
CGACAA | 1.89 ± 0.061 | 1.64 ± 0.012
UGACAA | 1.918 ± 0.012 | 1.74 ± 0.078
AGACAC | 1.92 ± 0.025 | 1.76 ± 0.033
CGACAG | 1.93 ± 0.037 | 1.68 ± 0.053
GGACAG | 1.85 ± 0.055 | 1.468 ± 0.0059
CGACAU | 1.887 ± 0.012 | 1.74 ± 0.021
GGACAU | 1.886 ± 0.0069 | 1.8 ± 0.038
UGACAU | 1.937 ± 0.0061 | 1.81 ± 0.033
CGACCA | 1.99 ± 0.045 | 1.85 ± 0.053
GGACCA | 1.916 ± 0.0027 | 1.881 ± 0.0056
UGACCA | 1.93 ± 0.058 | 1.886 ± 0.0032
AGACCA | 1.93 ± 0.046 | 1.85 ± 0.015
CGACCC | 2.03 ± 0.046 | 1.98 ± 0.086
GGACCC | 1.96 ± 0.065 | 1.93 ± 0.023
UGACCC | 2.002 ± 0.0071 | 1.94 ± 0.024

Variant | normalized RNA/DNA level with ligand (log10) (hypoxanthine [1]) | normalized RNA/DNA level without ligand (log10) (hypoxanthine [2])
CGACCG | 1.905 ± 0.0089 | 1.92 ± 0.023
UGACCG | 1.96 ± 0.094 | 1.79 ± 0.046
AGACCG | 1.925 ± 0.004 | 1.75 ± 0.067
CGACCU | 1.98 ± 0.032 | 1.92 ± 0.056
GGACCU | 1.98 ± 0.056 | 1.9838 ± 0.0012
UGACCU | 2.004 ± 0.012 | 1.92 ± 0.021
AGACCU | 1.92 ± 0.023 | 1.88 ± 0.044
CGACGA | 1.93 ± 0.064 | 1.803 ± 0.0041
GGACGC | 1.86 ± 0.044 | 1.49 ± 0.12
UGACGC | 1.96 ± 0.045 | 1.83 ± 0.038
AGACGC | 1.923 ± 0.0088 | 1.69 ± 0.044
CGACGU | 1.956 ± 0.0063 | 1.86 ± 0.075
GGACGU | 1.887 ± 0.013 | 1.814 ± 0.0056
CGACUA | 1.95 ± 0.079 | 1.698 ± 0.0058
GGACUA | 1.91 ± 0.09 | 1.84 ± 0.023
AGACUA | 1.95 ± 0.056 | 1.762 ± 0.0092
CGACUC | 2.06 ± 0.027 | 2.006 ± 0.0054
GGACUC | 1.9331 ± 0.00093 | 1.92 ± 0.085
CGACUG | 1.94 ± 0.023 | 1.828 ± 0.012
UGACUG | 1.912 ± 0.0096 | 1.77 ± 0.043
